The values that follow come from article PMC12901202.

This experiment has as its target SARS-CoV-2 JN.1 RBD, biotinylated (SARS-CoV-2) (UniProt P0DTC2). The experiment is described as follows: BLI; […]; 300 s association, 300 s dissociation; 10x kinetics buffer; […]; global fit, 1:1 model; […].

Consider “TRI2-2 homotrimeric miniprotein inhibitor (designed binder)”, for which the Kd turned out to be 6.19 nM, the koff stood at 0.00175 s⁻¹ and the kon is 282000 M⁻¹ s⁻¹.
